From PMC5402393, “Interactions of AMTN, ODAM and SCPPPQ1 proteins of a specialized basal lamina that attaches epithelial cells to tooth mineral” (Scientific Reports, 2017)

B1: recombinant human ODAM, purified, His-tag cleaved (natural protein, UniProt A1E959 16-279, looked up)
chain: APLIPQRLMSASNSNELLLNLNNGQLLPLQLQGPLNSWIPPFSGILQQQQQAQIPGLSQFSLSALDQFAGLLPNQIPLTGEASFAQGAQAGQVDPLQLQTPPQTQPGPSHVMPYVFSFKMPQEQGQMFQYYPVYMVLPWEQPQQTVPRSPQQTRQQQYEEQIPFYAQFGYIPQLAEPAISGGQQQLAFDPQLGTAPEIAVMSTGEEIPYLQKEAINFRHDSAGVFMPSTSPKPSTTNVFTSAVDQTITPELPEEKDKTDSLREP
notes: ~32 kDa; also called hODAM; source: E. coli BL21(DE3)-star, purified (Ni-NTA, TEV cleavage, Superose 6 gel filtration); not shown: His6, N-terminal, cleaved
B2: recombinant human AMTN, purified, His-tag cleaved (natural protein, UniProt Q6UX39 17-209, looked up)
chain: LPQLKPALGLPPTKLAPDQGTLPNQQQSNQVFPSLSLIPLTQMLTLGPDLHLLNPAAGMTPGTQTHPLTLGGLNVQQQLHPHVLPIFVTQLGAQGTILSSEELPQIFTSLIIHSLFPGGILPTSQAGANPDVQDGSLPAGGAGVNPATQGTPAGRLPTPSGTDDDFAVTTPAGIQRSTHAIEEATTESANGIQ
notes: ~21 kDa; also called hAMTN; source: E. coli BL21(DE3)-star, purified (Ni-NTA, TEV cleavage, S200 gel filtration); not shown: His6, N-terminal, cleaved

Assays:
[1] = molecular target: the molecule itself; experiment: SEC; Superose 6 GL 10/300 for ODAM, S200 for AMTN; 50 mM PB pH 7.4; purified recombinant human proteins, His-tag cleaved; self-association
[2] = molecular target: B1; experiment: circular dichroism; far-UV CD (180-250 nm) of purified hODAM, hAMTN and their mixture in 50 mM PB pH 7.2; change of secondary structure on mixing; conditions: both partners purified

Binder | stoichiometry N [1] [subunits] | binding result [2]
B1 | 12 to 13 | 
B2 | 5 | binds
